Our source for the ELISA_avg values is patent publication US20250026849A1 (ARCELLX, published 2025).

First the molecules themselves.
T1: CD123 (Homo sapiens (Human), UniProt P26951 19-305, limits assumed)
T1 construct: The CD123 construct used in the ELISA is not described; also called CD123-Signal
T1 sequence: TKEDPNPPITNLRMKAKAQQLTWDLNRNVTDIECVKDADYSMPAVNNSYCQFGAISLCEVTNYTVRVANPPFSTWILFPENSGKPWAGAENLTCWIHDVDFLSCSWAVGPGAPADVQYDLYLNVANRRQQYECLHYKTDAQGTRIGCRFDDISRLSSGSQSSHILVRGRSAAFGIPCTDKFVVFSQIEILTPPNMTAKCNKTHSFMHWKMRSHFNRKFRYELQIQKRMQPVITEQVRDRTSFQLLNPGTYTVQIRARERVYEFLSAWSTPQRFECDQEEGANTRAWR

B1: D domain of SEQ ID NO: 574 (designed binder)
chain: MGSWFEFDERLDAIGSRLTALGGSEAELASFEFYIADFEEWLQQYKGKGNPEVEALEWEAFAIDEELGAYRHN
B2: D domain of SEQ ID NO: 558 (designed binder)
chain: MGSWYQFKDDLAHIKHLLEALGGSEAELAVFEYIIADFESFLQIYKGKGNPEVEALRKEAAAIRDELQAYRHN
B3: D domain of SEQ ID NO: 571 (designed binder)
chain: MGSWYEFDMRLDAIWERLTALGGSEAELADFEQYIAEFERQLQDYKGKGNPEVEALFDEAWAIEDELYAYRHN
B4: D domain of SEQ ID NO: 570 (designed binder)
chain: MGSWYEFDHRLDAIYQRLWALGGSEAELAEFEYGIAEFEEYLQDYKGKGNPEVEALISEAWAIEWELSAYRHN
B5: D domain of SEQ ID NO: 568 (designed binder)
chain: MGSWWEFDHRLTAIDTRLQALGGSEAELAEFESSIAEFEWWLQDYKGKGNPEVEALFAEAEAIYVELDAYRHN
B6: D domain of SEQ ID NO: 561 (designed binder)
chain: MGSWFQFKEFLAMITHNLEALGGSEAELAEFEHDIALFESELQQYKGKGNPEVEALRKEAAAIRDELQAYRHN
B7: D domain of SEQ ID NO: 546 (designed binder)
chain: MGSWHVFKTELADIKFYLEALGGSEAELAMFELWIAEFEHELQDYKGKGNPEVEALRKEAAAIRDELQAYRHN
B8: D domain of SEQ ID NO: 538 (designed binder)
chain: MGSWFMFKQELAWIKEDLEALGGSEAELADFEWDIAEFEWDLQYYKGKGNPEVEALRKEAAAIRDELQAYRHN
B9: D domain of SEQ ID NO: 539 (designed binder)
chain: MGSWQIFKGELAYIKQYLEALGGSEAELAFFEFDIAEFEEDLQYYKGKGNPEVEALRKEAAAIRDELQAYRHN
B10: D domain of SEQ ID NO: 542 (designed binder)
chain: MGSWYQFKTELAWIKDDLEALGGSEAELAWFEWVIADFEDDLQFYKGKGNPEVEALRKEAAAIRDELQAYRHN
B11: D domain of SEQ ID NO: 553 (designed binder)
chain: MGSWHWFKEELAEIKEDLVALGGSEAELAWFEYDIAMFELSLQNYKGKGNPEVEALRKEAAAIRDELQAYRHN
B12: D domain of SEQ ID NO: 554 (designed binder)
chain: MGSWNDFKEELAWIKFDLEALGGSEAELAWFEEDIAMFEQQLQAYKGKGNPEVEALRKEAAAIRDELQAYRHN
B13: D domain of SEQ ID NO: 564 (designed binder)
chain: MGSWTEFKGELAEIKWILEALGGSEAELAFFEDEIAAFEWDLQKYKGKGNPEVEALRKEAAAIRDELQAYRHN
B14: D domain of SEQ ID NO: 562 (designed binder)
chain: MGSWHWFKEDLAMITDVLEALGGSEAELAAFESEIAVFEADLQYYKGKGNPEVEALRKEAAAIRDELQAYRHN
B15: D domain of SEQ ID NO: 566 (designed binder)
chain: MGSWAEFKQRLAAIKTRLEALGGSEAELAAFMDEIMAFEWELWAYKGKGNPEVEALMNEAFAIDVELYAYRHN
B16: D domain of SEQ ID NO: 552 (designed binder)
chain: MGSWLYFKEYLADIKSDLEALGGSEAELAWFEYEIADFEEQLQYYKGKGNPEVEALRKEAAAIRDELQAYRHN
B17: D domain of SEQ ID NO: 543 (designed binder)
chain: MGSWFEFKDYLADIKWDLEALGGSEAELAIFEHDIAYFEHNLQQYKGKGNPEVEALRKEAAAIRDELQAYRHN
B18: D domain of SEQ ID NO: 544 (designed binder)
chain: MGSWVRFKDFLADIKMDLEALGGSEAELADFEYHIAEFEHNLQEYKGKGNPEVEALRKEAAAIRDELQAYRHN
B19: D domain of SEQ ID NO: 575 (designed binder)
chain: MGSWEEFDQRLDAIDVRLYALGGSEAELAEFEFDIAAFEEWLQLYKGKGNPEVEALNMEAFAITDELCAYRHN
B20: D domain of SEQ ID NO: 549 (designed binder)
chain: MGSWTWFKDNLAWIKEDLEALGGSEAELAWFELEIASFETALQDYKGKGNPEVEALRKEAAAIRDELQAYRHN
B21: D domain of SEQ ID NO: 550 (designed binder)
chain: MGSWTYFKNDLAGIKEDLEALGGSEAELAQFEFEIAEFEWLLQDYKGKGNPEVEALRKEAAAIRDELQAYRHN
B22: D domain of SEQ ID NO: 551 (designed binder)
chain: MGSWTWFKWDLADIKGDLEALGGSEAELAFFEEEIAEFEWRLQDYKGKGNPEVEALRKEAAAIRDELQAYRHN
B23: D domain of SEQ ID NO: 545 (designed binder)
chain: MGSWWLFKEQLALIKYNLEALGGSEAELADFESWIAEFEHQLQEYKGKGNPEVEALRKEAAAIRDELQAYRHN
B24: D domain of SEQ ID NO: 537 (designed binder)
chain: MGSWFMFKEELADIKDWLEALGGSEAELASFESYIAWFEQDLQWYKGKGNPEVEALRKEAAAIRDELQAYRHN
B25: D domain of SEQ ID NO: 548 (designed binder)
chain: MGSWGWFKHELAFIKADLEALGGSEAELAWFEEEIAEFEYELQFYKGKGNPEVEALRKEAAAIRDELQAYRHN
B26: D domain of SEQ ID NO: 560 (designed binder)
chain: MGSWVVFKQDLADINHQLEALGGSEAELAWFEWEIADFEWELQHYKGKGNPEVEALRKEAAAIRDELQAYRHN
B27: D domain of SEQ ID NO: 555 (designed binder)
chain: MGSWWDFKDWLAEIKHDLEALGGSEAELALFESEIADFEFGLQWYKGKGNPEVEALRKEAAAIRDELQAYRHN
B28: D domain of SEQ ID NO: 567 (designed binder)
chain: MGSWAEFKQRLAAIKTRLEALGGSEAELAAFEWEIVAFFSELFAYKGKGNPEVEALRDEAIAIETELVAYRHN
B29: D domain of SEQ ID NO: 540 (designed binder)
chain: MGSWDFFKEELAEIKHYLEALGGSEAELAFFEFWIADFEQDLQEYKGKGNPEVEALRKEAAAIRDELQAYRHN
B30: D domain of SEQ ID NO: 541 (designed binder)
chain: MGSWFNFKEELAVIKFQLEALGGSEAELAFFEWVIADFEDDLQEYKGKGNPEVEALRKEAAAIRDELQAYRHN
B31: D domain of SEQ ID NO: 547 (designed binder)
chain: MGSWIWFKDWLADIKDLLEALGGSEAELAEFEYDIALFEDQLQAYKGKGNPEVEALRKEAAAIRDELQAYRHN
B32: D domain of SEQ ID NO: 573 (designed binder)
chain: MGSWYEFDDRLDAIAYRLNALGGSEAELAWFEWEIAEFELDLQWYKGKGNPEVEALVWEADAIEWELEAYRHN
B33: D domain of SEQ ID NO: 556 (designed binder)
chain: MGSWDEFKEDLAHIKTDLEALGGSEAELALFEDEIADFEMYLQHYKGKGNPEVEALRKEAAAIRDELQAYRHN
B34: D domain of SEQ ID NO: 536 (designed binder)
chain: MGSWHWFKIVLADIKDGLEALGGSEAELAYFETTIADFEMDLHHYKGKGNPEVEALRKEAAAIRDELQAYRHN
B35: D domain of SEQ ID NO: 565 (designed binder)
chain: MGSWFEFKWTLALIKQELEALGGSEAELADFEQEIAEFEWWLQTYKGKGNPEVEALRKEAAAIRDELQAYRHN
B36: D domain of SEQ ID NO: 559 (designed binder)
chain: MGSWAEFKHDLADIKRELEALGGSEAELAWFELSIAFFEDELQHYKGKGNPEVEALRKEAAAIRDELQAYRHN
B37: D domain of SEQ ID NO: 557 (designed binder)
chain: MGSWDFFKYDLANINEWLEALGGSEAELADFEYGIADFELWLQDYKGKGNPEVEALRKEAAAIRDELQAYRHN
B38: D domain of SEQ ID NO: 569 (designed binder)
chain: MGSWWEFQFRLYAIDQRLLALGGSEAELAEFEQDIADFEWMLQDYKGKGNPEVEALMLEADAIEAELKAYRHN
B39: D domain of SEQ ID NO: 572 (designed binder)
chain: MGSWSEFDSRLDAIAYRLFALGGSEAELAQFEWIIADFEEDLQMYKGKGNPEVEALFSEAYAIEIELNAYRHN
B40: D domain of SEQ ID NO: 563 (designed binder)
chain: MGSWSWFQWDLAGIKDHLEALGGSEAELAEFESEIAYFEDELQWYKGKGNPEVEALRKEAAAIRDELQAYRHN

This experiment addresses T1, CD123. Put plainly: ELISA. Further details: unit not given here.
Molecule B1 gave an ELISA_avg of 3.8.

As to B2, the ELISA_avg stood at 4.

B3 had an ELISA_avg of 13.7.

On to B4, for which the ELISA_avg was determined as 4.6.

B5 yielded an ELISA_avg of 4.3.

Regarding B6, the ELISA_avg turned out to be 3.1.

Consider B7, for which the ELISA_avg is 5.4.

The molecule B8 gave an ELISA_avg of 7.2.

Molecule B9 yielded an ELISA_avg of 4.7.

B10: the ELISA_avg is 6.6.

The molecule B11 showed an ELISA_avg of 3.1.

B12 came in with an ELISA_avg of 3.8.

Take B13: the ELISA_avg was 8.2.

On to B14, for which the ELISA_avg is 5.2.

For B15, the ELISA_avg was 3.4.

As to B16, the ELISA_avg was 3.7.

In turn, B17 had an ELISA_avg of 3.8.

In turn, B18 had an ELISA_avg of 5.8.

Regarding B19, the ELISA_avg came to 3.6.

In the case of B20, the ELISA_avg is 6.9.

B21: the ELISA_avg turned out to be 3.6.

The molecule B22 returned an ELISA_avg of 5.9.

B23 showed an ELISA_avg of 4.1.

In turn, B24 gave an ELISA_avg of 5.7.

Consider B25, for which the ELISA_avg was 3.3.

In turn, B26 showed an ELISA_avg of 3.6.

In turn, B27 gave an ELISA_avg of 4.2.

Take B28: the ELISA_avg turned out to be 3.6.

In turn, B29 came in with an ELISA_avg of 3.7.

In turn, B30 displayed an ELISA_avg of 6.1.

For B31, the ELISA_avg was 7.3.

B32: the ELISA_avg worked out at 4.6.

B33 yielded an ELISA_avg of 6.3.

Turning to B34, the ELISA_avg is 3.5.

Turning to B35, the ELISA_avg turned out to be 4.9.

On to B36, for which the ELISA_avg was 3.3.

In turn, B37 gave an ELISA_avg of 5.5.

As to B38, the ELISA_avg came to 3.1.

The molecule B39 yielded an ELISA_avg of 4.3.

Consider B40, for which the ELISA_avg was 12.9.
